# Tests used:
# [1] = system: GST-IkBα protein [GST: P08515]
# [2] = system: casein (Sigma)
# Sequence of GST-IkBα protein [GST: P08515] (P08515 whole entry, looked up): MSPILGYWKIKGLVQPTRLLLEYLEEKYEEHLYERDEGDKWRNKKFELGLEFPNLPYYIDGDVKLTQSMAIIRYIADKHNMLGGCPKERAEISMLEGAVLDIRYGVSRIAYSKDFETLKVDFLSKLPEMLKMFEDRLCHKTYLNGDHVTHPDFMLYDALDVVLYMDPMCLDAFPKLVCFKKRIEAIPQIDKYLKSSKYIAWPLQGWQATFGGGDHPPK
substance,measurement,setting,value
GST fusion protein with mutant VRK1 protein (Lys 71 replaced by Trp),"kinase assay, phosphorylation of substrate ([γ-32P]-ATP, SDS-PAGE, 10 mM Mg)",[1],no phosphorylation was observed in reactions with mutant VRK1 carrying mutation in the predicted ATP binding site
same,"kinase assay, phosphorylation of substrate ([γ-32P]-ATP, SDS-PAGE, 10 mM Mg)",[2],no phosphorylation was observed in reactions with mutant VRK1 carrying mutation in the predicted ATP binding site

# Source: patent publication US20030171557
